Laboratory results from publication PMC5414417.

What was measured:
[1] = target: 3xFLAG-TMEM24(76-260) (human) (UniProt O14523); experiment: native MS
[2] = target: TMEM24 SMP domain (residues 76 to 260) (human) (UniProt O14523); experiment: SEC

3xFLAG-TMEM24(76-260) (from UniProt O14523 76-260) (domain or fragment)
stoichiometry N [1]: 2

TMEM24 SMP domain (residues 76 to 260) (from UniProt O14523 76-260) (domain or fragment)
stoichiometry N [2]: 2
